Source: patent publication US20200325225A1 (Hoffmann-La Roche, published 2020)

Molecular target: T1, murine FAP (murine, UniProt P97321 27-761, limits assumed)
T1 construct: also called mouse FAP; murine FAP (Analyte 2)
Assay: SPR (Biacore T200, 25 C, HBS-EP), simultaneous binding; muFAP-4-1BB held on immobilized murine 4-1BB Fc(kih); murine FAP 500 nM as second analyte, 30 uL/min, 90 s, dissociation 120 s
Experimental: All SPR experiments were performed on a Biacore T200 at 25° C. with HBS-EP as running buffer (0.01 M HEPES pH 7.4, 0.15 M NaCl, 3 mM EDTA, 0.005% Surfactant P20, Biacore, Freiburg/Germany). […] Immobilization levels up to 600 resonance units (RU) were used.
Murine FAP was injected as second analyte with a flow of 30 μL/minute through the flow cells over 90 seconds at a concentration of 500 nM. The dissociation was monitored for 120 sec. Bulk refractive index differences were corrected for by subtracting the response obtained in a reference flow cell, where no protein was immobilized.

T1 sequence (P97321 27-761 limits assumed): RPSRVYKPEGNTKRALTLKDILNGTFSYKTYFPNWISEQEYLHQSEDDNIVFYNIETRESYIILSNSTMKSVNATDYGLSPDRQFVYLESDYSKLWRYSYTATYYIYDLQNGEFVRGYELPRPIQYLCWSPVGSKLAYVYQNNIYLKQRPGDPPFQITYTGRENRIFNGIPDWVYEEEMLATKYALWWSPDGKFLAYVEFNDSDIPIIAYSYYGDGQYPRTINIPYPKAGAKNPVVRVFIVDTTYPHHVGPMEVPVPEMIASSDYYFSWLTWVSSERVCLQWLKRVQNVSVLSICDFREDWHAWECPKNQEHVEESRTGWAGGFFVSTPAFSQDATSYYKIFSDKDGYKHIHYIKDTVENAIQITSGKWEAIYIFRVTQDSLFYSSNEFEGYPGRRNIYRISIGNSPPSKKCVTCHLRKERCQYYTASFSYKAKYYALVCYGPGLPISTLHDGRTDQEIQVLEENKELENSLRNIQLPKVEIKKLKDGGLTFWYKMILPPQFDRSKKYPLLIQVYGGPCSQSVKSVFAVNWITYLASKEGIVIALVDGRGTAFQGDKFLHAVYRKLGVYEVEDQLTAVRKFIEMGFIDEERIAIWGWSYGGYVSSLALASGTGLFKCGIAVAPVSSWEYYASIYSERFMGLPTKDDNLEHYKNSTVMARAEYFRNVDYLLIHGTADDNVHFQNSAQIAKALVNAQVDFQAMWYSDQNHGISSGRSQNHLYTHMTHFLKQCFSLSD

binding result: binds
B1: 4-1BB (MU137-1)/FAP(28H1) DAPG IgG1 2+1 (Fc-DD-VL) (bispecific antibody)
heavy 1: DVQLVESGGGLVQPGRSLKLSCAASGFIFSYFDMAWVRQAPTKGLEWVASISPSGDIPYYRDSVKGRFTVSRENAKSSLYLQMDSLRSEDTATYYCARRSYGGYSELDYWGQGVMVTVSSAKTTPPSVYPLAPGSAAQTNSMVTLGCLVKGYFPEPVTVTWNSGSLSSGVHTFPAVLQSDLYTLSSSVTVPSSTWPSQTVTCNVAHPASSTKVDKKIVPRDCGCKPCICTVPEVSSVFIFPPKPKDVLTITLTPKVTCVVVAISKDDPEVQFSWFVDDVEVHTAQTKPREEQINSTFRSVSELPIMHQDWLNGKEFKCRVNSAAFGAPIEKTISKTKGRPKAPQVYTIPPPKEQMAKDKVSLTCMITNFFPEDITVEWQWNGQPAENYDNTQPIMDTDGSYFVYSDLNVQKSNWEAGNTFTCSVLHEGLHNHHTEKSLSHSPGGGGGSGGGGSGGGGSGGGGSEIVLTQSPGTLSLSPGERATLSCRASQSVSRSYLAWYQQKPGQAPRLLIIGASTRATGIPDRFSGSGSGTDFTLTISRLEPEDFAVYYCQQGQVIPPTFGQGTKVEIK
heavy 2: DVQLVESGGGLVQPGRSLKLSCAASGFIFSYFDMAWVRQAPTKGLEWVASISPSGDIPYYRDSVKGRFTVSRENAKSSLYLQMDSLRSEDTATYYCARRSYGGYSELDYWGQGVMVTVSSAKTTPPSVYPLAPGSAAQTNSMVTLGCLVKGYFPEPVTVTWNSGSLSSGVHTFPAVLQSDLYTLSSSVTVPSSTWPSQTVTCNVAHPASSTKVDKKIVPRDCGCKPCICTVPEVSSVFIFPPKPKDVLTITLTPKVTCVVVAISKDDPEVQFSWFVDDVEVHTAQTKPREEQINSTFRSVSELPIMHQDWLNGKEFKCRVNSAAFGAPIEKTISKTKGRPKAPQVYTIPPPKKQMAKDKVSLTCMITNFFPEDITVEWQWNGQPAENYKNTQPIMKTDGSYFVYSKLNVQKSNWEAGNTFTCSVLHEGLHNHHTEKSLSHSPGGGGGSGGGGSGGGGSGGGGSEVQLLESGGGLVQPGGSLRLSCAASGFTFSSHAMSWVRQAPGKGLEWVSAIWASGEQYYADSVKGRFTISRDNSKNTLYLQMNSLRAEDTAVYYCAKGWLGNFDYWGQGTLVTVSS
light: DIQMTQSPASLSASLEEIVTITCQASQDIGNWLAWYHQKPGKSPQLLIYGTSSLADGVPSRFSGSSSGSQYSLKISRLQVEDIGIYYCLQAYGAPWTFGGGTKLELKRADAAPTVSIFPPSSEQLTSGGASVVCFLNNFYPKDINVKWKIDGSERQNGVLNSWTDQDSKDSTYSMSSTLTLTKDEYERHNSYTCEATHKTSTSPIVKSFNRNEC
notes: It is a mouse IgG1 with DAPG (D265A, P329G) and DD/KK heterodimerisation mutations, bivalent for mouse 4-1BB and monovalent for FAP; also called muFAP-4-1BB; mouse surrogate muFAP-4-1BB
